From patent US20220363757A1 (SYMPHOGEN A S, published 2022) come the findings set out here.

Substitutions are numbered along the chain they refer to.

The labels stand for the following.
B1: Fab fragment of antibody 15011 (Fab, V domains shown, not shown: a dimerising Fc or GST)
VH: EVQLLESGGGLVQPGGSLRLSCAASGFDFRSYAMMWVRQAPGKGLEWVGGINGEVGGSNTYYAPAVKGRATISRDNSKNTLYLQMNSLRAEDTAVYYCVKGAGACGICNDDIDAWGQGTLVTVSS
VL: SYELTQDPAVSVALGQTVRITCSGAGSYAGSYYYGWHQQKPGQAPVTVIYDNDKRPSNIPDRFSGSSSGNTASLTITGAQAEDEADYYCGSTNDNDDGGLFGSGTKVTVLG
notes: monomeric Fab made by GingisKHAN digestion of the IgG1
B2: Fab fragment of antibody 15572 (Fab, V domains shown, not shown: a dimerising Fc or GST)
VH: QLQLQESGPGLVKPSETLSLTCTVSGDSISSSSYYWGWIRQPPGKGLEWIGSIFYSGNTYYNPSLKSRVTISVDTSKNQFSLKLSSVTAADTAVYYCAREDDFLTDYYGAFDIWGQGTMVTVSS
VL: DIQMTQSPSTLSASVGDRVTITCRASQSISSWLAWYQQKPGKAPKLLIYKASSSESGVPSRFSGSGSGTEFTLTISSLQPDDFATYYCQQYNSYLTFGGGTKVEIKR
notes: as for B1
B3: Fab fragment of antibody 15532 (Fab, V domains shown, not shown: a dimerising Fc or GST)
VH: QVQLQQWGAGLLRPSETLSLTCAVYGESFSGYYWNWIRQPPGKGLEWIGEINHSGSTNYNPSLKSRVTISVDTSKTQFSLKLSSVTAADTAVYYCARGWDLLDWNDYWNEYWGQGTLVTVSS
VL: EIVLTQSPATLSLSPGERATLSCRASQSVSSYLAWYQQKPGQAPRLLIYDASNRATGIPARFSGSGSGTDFTLTISSLEPEDFAVYYCQQRSNWPLTFGGGTKVEIKR
notes: as for B1
B4: Fab fragment of antibody 15431 (Fab, V domains shown, not shown: a dimerising Fc or GST)
VH: QVQLQQSGPGLVKPSQTLSLTCAISGDSVSSNSAAWNWIRQSPSRGLEWLGRTYYRSKWYNDYAVSVKSRITINPDTSKNQFSLQLNSVTPEDTAVYYCARDDDWNDFDYWGQGTLVTVSS
VL: B3 VL
notes: as for B1

One assay deals with T1, human LAG-3 domain 1-2 Fc fusion, point mutation #43 P96A (human, UniProt P18627 23-266).
T1 construct: not shown: human IgG1 Fc, AA P101-K330
T1 sequence: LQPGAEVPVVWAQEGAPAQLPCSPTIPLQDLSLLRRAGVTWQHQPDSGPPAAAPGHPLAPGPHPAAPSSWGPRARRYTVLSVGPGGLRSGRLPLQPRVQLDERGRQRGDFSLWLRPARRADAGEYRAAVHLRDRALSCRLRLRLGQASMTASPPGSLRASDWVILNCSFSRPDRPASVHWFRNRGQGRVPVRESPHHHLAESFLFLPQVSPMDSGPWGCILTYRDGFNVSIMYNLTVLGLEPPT
The experiment in a line: SPR, Fab over captured mutant LAG-3-Fc.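 Further: fc fusion variants captured on anti-human IgG Fc sensor, Fab injected with association then dissociation phases, KD obtained from Langmuir one-to-one fit.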
As to B1, the “KD mutant/KD wild type” value amounted to 0.6 fold.
With B2, the binding result was “no binding (tested: 300 nM)”.
In the case of B3, the “KD mutant/KD wild type” value turned out to be 1.4 fold.
For B4, the binding result is “no binding (tested: 300 nM)”.

The target of another assay is T2, human LAG-3 domain 1-2 Fc fusion, point mutation #52 G108A (human, UniProt P18627 23-266).
T2 construct: not shown: human IgG1 Fc, AA P101-K330
T2 sequence: T1 sequence with A74P, G86A
The experiment in a line: SPR, Fab over captured mutant LAG-3-Fc.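 Further: fc fusion variants captured on anti-human IgG Fc sensor, Fab injected with association then dissociation phases, KD obtained from Langmuir one-to-one fit.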 In general terms: In SPR one partner is held on a chip, and binding of the other changes the refractive index at the surface.
B1: the “KD mutant/KD wild type” value is 0.5 fold.
In the case of B2, the “KD mutant/KD wild type” value came to 0.4 fold.
Consider B3, for which the “KD mutant/KD wild type” value was found to be 1 fold.
Same read-out and setting: in the case of B4 it was 0.3 fold.

Another assay concerns the target T3, human LAG-3 domain 1-2 Fc fusion, point mutation #57 R113A (human, UniProt P18627 23-266).
T3 construct: not shown: human IgG1 Fc, AA P101-K330
T3 sequence: T1 sequence with A74P, R91A
In words: SPR, Fab over captured mutant LAG-3-Fc.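 Further: fc fusion variants captured on anti-human IgG Fc sensor, Fab injected with association then dissociation phases, KD obtained from Langmuir one-to-one fit.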
Consider B1, for which the “KD mutant/KD wild type” value was 3.3 fold.
The same measure, in the same setting: as for B2, the figure is 0.7 fold; as for B3, 0.6 fold; as for B4, 0.9 fold.

The target of the next assay is T4, human LAG-3 domain 1-2 Fc fusion, point mutation #58 P115A (human, UniProt P18627 23-266).
T4 construct: not shown: human IgG1 Fc, AA P101-K330
T4 sequence: T1 sequence with A74P, P93A
In words: SPR, Fab over captured mutant LAG-3-Fc.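 Further: fc fusion variants captured on anti-human IgG Fc sensor, Fab injected with association then dissociation phases, KD obtained from Langmuir one-to-one fit.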
For B1, the “KD mutant/KD wild type” value is 1.3 fold.
Consider B2, for which the “KD mutant/KD wild type” value was 1.4 fold.
As for B3, the “KD mutant/KD wild type” value is 1 fold.
With B4, the “KD mutant/KD wild type” value turned out to be 1.1 fold.

A further assay concerns the target T5, human LAG-3 domain 1-2 Fc fusion, point mutation #65 R125A (human, UniProt P18627 23-266).
T5 construct: not shown: human IgG1 Fc, AA P101-K330
T5 sequence: T1 sequence with A74P, R103A
The experiment in a line: SPR, Fab over captured mutant LAG-3-Fc.
Consider B1, for which the “KD mutant/KD wild type” value was found to be 1.1 fold.
Turning to B2, the “KD mutant/KD wild type” value stood at 1.1 fold.
On the same count and under the same terms, in the case of B3 it was 0.9 fold; in that of B4, 1.1 fold.

The target of another assay is T6, human LAG-3 domain 1-2 Fc fusion, point mutation #71 D131A (human, UniProt P18627 23-266).
T6 construct: not shown: human IgG1 Fc, AA P101-K330
T6 sequence: T1 sequence with A74P, D109A
In words: SPR, Fab over captured mutant LAG-3-Fc.
Turning to B1, the “KD mutant/KD wild type” value amounted to 0.6 fold.
With B2, the binding result is “no binding (tested: 300 nM)”.
With B3, the “KD mutant/KD wild type” value was found to be 4.2 fold.
As for B4, the binding result is recorded as “no binding (tested: 300 nM)”.

A further assay addresses T7, human LAG-3 domain 1-2 Fc fusion, point mutation #26 P79A (human, UniProt P18627 23-266).
T7 construct: not shown: human IgG1 Fc, AA P101-K330
T7 sequence: T1 sequence with P57A, A74P
The experiment in a line: SPR, Fab over captured mutant LAG-3-Fc.
For B1, the “KD mutant/KD wild type” value came out at 0.6 fold.
Still for that read-out and setting: as for B2, the figure is 0.4 fold.
As to B3, the “KD mutant/KD wild type” value came out at 0.9 fold.
In the case of B4, the “KD mutant/KD wild type” value was determined as 0.4 fold.

The target in another assay is T8, human LAG-3 domain 1-2 Fc fusion, point mutation #27 L80A (human, UniProt P18627 23-266).
T8 construct: not shown: human IgG1 Fc, AA P101-K330
T8 sequence: T1 sequence with L58A, A74P
In words: SPR, Fab over captured mutant LAG-3-Fc.
With B1, the “KD mutant/KD wild type” value worked out at 0.8 fold.
The same measure, in the same setting: as for B2, the figure is 0.6 fold.
With B3, the “KD mutant/KD wild type” value turned out to be 0.6 fold.
The same measure, in the same setting: as for B4, the figure is 0.5 fold.

The target in another assay is T9, human LAG-3 domain 1-2 Fc fusion, point mutation #33 P86A (human, UniProt P18627 23-266).
T9 construct: not shown: human IgG1 Fc, AA P101-K330
T9 sequence: T1 sequence with P64A, A74P
In words: SPR, Fab over captured mutant LAG-3-Fc.
For B1, the “KD mutant/KD wild type” value was determined as 0.7 fold.
Turning to B2, the “KD mutant/KD wild type” value turned out to be 0.7 fold.
Consider B3, for which the “KD mutant/KD wild type” value stood at 6.1 fold.
Consider B4, for which the “KD mutant/KD wild type” value is 0.6 fold.
